From publication PMC6598250

Target: unfolded precursor form of maltose binding protein (preMBP) (E. coli)
Assay: ITC; 120 uM SecB or SecB_(T10A) titrated into 20 uM preMBP; 25 °C; KPB buffer pH 7.4, 100 mM; MicroCal PEAQ-ITC; triplicate

Row | Kd [µM] | dH [kJ/mol] | stoichiometry N | Substance
1 | 61.7 | -6.18 | 3.08 | SecB chaperone, wild type (from UniProt P0AG86 1-153) (natural protein)
2 | 5.2 | -8.32 | 4.99 | SecB_(T10A) (from UniProt P0AG86 1-153) (natural protein)
